Reference: US12465646B2, “Linkers” (Oxford University Innovation Limited, priority 2018, dated 2025)
Where no end group is shown, it is not given here. [ ]: non-standard residue; d: D form. GABA = NCCCC(=O)O; βAla = NCCC(=O)O

What was measured:
[1] = Recovery time of mice after intravenous injection of peptide-PMO-CAG7; assay type: in vivo, C57BL6 mice
Method: Animal experiments and ASO injections. Experiments were carried out in the University of Oxford according to UK legislation. The intravenous injections in HSA-LR C57BL/6 mice were performed by single or repeated administrations via the tail vein. Doses of 30, 12.5, 7.5 and 5 mg/kg of peptide-PMO-CAG7 (SEQ ID NO: 81) were diluted in 0.9% saline and given at a volume of 5-6 μL/g of body weight. KIM-1 levels in C57BL6 female mice measured by ELISA (R&D cat #MKM100) with samples diluted to fit within standard curve. Values were normalised to urinary creatinine levels (Harwell) to account for urine protein concentration.

[2] = CPP carrier; cited from earlier work
exon skipping = conditions: in a conjugate with a therapeutic molecule; cited from earlier work
human hepatocytes = assay: Hepatocyte cell viability; assay type: cell-based; conditions: 40 μM
Method: Immortalized myoblasts from healthy individual or DM1 patient with 2600 CTG repeats were cultivated in a growth medium consisting of a mix of M199:DMEM (1:4 ratio; Life technologies) supplemented with 20% FBS (Life technologies), 50 μg/ml gentamycin (Life technologies), 25 μg/ml fetuin, 0.5 ng/ml bFGF, 5 ng/ml EGF and 0.2 μg/ml dexamethasone (Sigma-Aldrich). Myogenic differentiation was induced by switching confluent cell cultures to DMEM medium supplemented with 5 μg/ml insulin (Sigma-Aldrich) for myoblasts. For treatment, WT or DM1 cells are differentiated for 4 days. Then, medium was changed with fresh differentiation medium with peptide-PMOs at a 1, 2, 5 10, 20 or 40 μM concentration. Cells were harvested for analysis 48 h after treatment. Cell viability was quantified in after 2 days of transfection of peptide-PMOs at 40 μM in human hepatocytes or at a 1, 2, 5 10, 20 or 40 μM concentration in human myoblasts using a fluorescent-based assay (Promega).

With Ac-RBRRBRFQILYBRBR-B [DPEP1.9] the “recovery time after injection, time AV ± SD” value (from here on “recovery time … time AV ± SD”) ([1]; 7.5 mg/kg, HSA-LR mouse, 8-12 weeks) was 0 min, the “recovery time … time AV ± SD” value ([1]; 30 mg/kg, HSA-LR mouse, 30 weeks) was >60 min and the “recovery time … time AV ± SD” value ([1]; 4× 7.5 mg/kg repeated injections, HSA-LR mouse, 8-12 weeks) was 0 min. The “recovery time … time AV ± SD” value ([1]; 6× 5 mg/kg repeated injections, HSA-LR mouse, 8-12 weeks) was 0 min.
In the case of “Ac-RBRRBRFQILYBRBR-E (Ac-R[βAla]RR[βAla]RFQILY[βAla]R[βAla]RE; also: Glu linker to [CAG]7 PMO, attachment not given here) [DPEP1.9b]”, the “recovery time … time AV ± SD” value ([1]; 30 mg/kg, WT mouse, 8-12 weeks) is reported as 15 min.
In the case of “Ac-RBRRBRRFQILYRBHBH-Ab (Ac-R[βAla]RR[βAla]RRFQILYR[βAla]H[βAla]H-{GABA-(CAG)7 PMO}) [DPEP3.1a]”, the “recovery time … time AV ± SD” value ([1]; 30 mg/kg, WT mouse, 8-12 weeks) is reported as 10 min.
In the case of “Ac-RRRRRR-(G) (Ac-RRRRRRG; also: conjugated therapeutic molecule via glycine linker) [R6Gly]”, the toxicity [2] is listed as “reduced toxicity” and the “efficacy in inducing exon skipping” value (exon skipping) is listed as “reduced efficacy”.
For “Ac-RXRRBRRXR-YQFLI-RXRBRXR-(B) [pip6a, reference compound]”, the “percentage hepatocyte cell viability” value (human hepatocytes) was “cell mortality” and the “recovery time … time AV ± SD” value ([1]; 12.5 mg/kg, HSA-LR mouse, 8-12 weeks) was >60 min.
